Reference: US12552837B2, “Bicyclic peptide ligands with detectable moieties and uses thereof” (BicycleRD Limited, priority 2017, dated 2026)
*1 amine or outer side, *2 acyl side, *3 side chain or, on linkers, in order; H or OH if unused. Where a SMILES comes first, the peptide text is derived from it. Bridges are numbered along the chain shown (N, C = ends). [ ]: non-standard residue; d: D form. The star is where a group is joined. DOTA = O=C(O)CN1CCN(CC(=O)O)CCN(CC(=O)*)CCN(CC(=O)O)CC1; 1Nal = N[C@@H](Cc1cccc2ccccc12)C(=O)O; TBMB = c1c(C[*:1])cc(C[*:3])cc1C[*:2]; Palmitoyl = CCCCCCCCCCCCCCCC(=O)*; Tle = CC(C)(C)[C@H](N)C(=O)O; Aib = CC(C)(N)C(=O)O; βAla = NCCC(=O)O; Sar = CNCC(=O)O

Legend:
HT1080 tumor = test: Organ distribution of 177Lu-labelled peptides in HT1080 xenograft mice; assay type: in vivo, BALB/c nu/nu mice
Method: (§1) General procedure for radiolabelling with Lu-177.
(§2) • 50 μL 0.25 M Na-Acetate buffer pH 5.2+0.1% Tween 20; • 10 μL [Lu-177]LuCl3 in 0.05 M HCl; and • 2 μL of the diluted peptide (2 nmols). […]
(§3) Organ distribution studies, general method: For organ distribution, the respective dose is prepared by dilution of the labeling reaction mixture in injection buffer (0.25 M Na-Acetate pH 7+0.05% Tween20). The ^177Lu-radiolabeled peptide was injected via the tail vein of the nu/nu mice (50 kBq per mouse), transplanted with the respective cell line. At indicated time points after injection the animals were sacrificed. Blood, heart, lung, spleen, liver, kidney, muscle, brain, femur, and the tumor were dissected, blotted dry, and weighed. The radioactivity was measured with a γ-counter (CobraII; Canberra Packard) along with a sample of the injection solution to calculate the percentage injected dose per gram of tissue (% ID/g).
(§4) The γ- and β-emitter ^177LuCl3 (NEZ307D, Perkin Elmer, in 0.04 M HCl), with a t1/2 of 6.7 days was used for both in vivo biodistribution and internalization studies. Labeling reactions were performed by adding 10 μL ^177LuCl3 (˜10 MBq) in 50 mM HCl, 2 μL of the diluted peptide (1 mM solution in 50 mM HEPES buffer pH 7+0.1% Tween 20 diluted from a 10 mM DMSO stock) to 50 μL 50 mM HEPES buffer pH 7 supplemented with 0.1% Tween 20. The reaction mixture was incubated at 98° C. for 10 minutes. The radiochemical yield (RCY) was determined using high performance liquid chromatography (HPLC) system equipped with a Latek P402 (Latek, Eppelheim, Germany), a HITACHI variable UV detector (absorbance was measured at 214 and 254 nm) and a gamma detector (Bioscan, WA, USA), using a Chromolith RP-18 column (100×4.6 mm; Merck). The analytical HPLC run was performed at 4 mL/min, using a linear A (0.1% trifluoroacetic acid (TFA) in water) to B (0.1% TFA in acetonitrile) gradient (0% B to 100% B in 6 min). Thin-layer chromatography was performed in parallel to confirm the results of the radio-HPLC. The RCY was generally >95%, and thus, the output of labelling reactions was directly diluted with the appropriate buffer and further unlabeled peptide if required, to use in subsequent experiments.
(§5) 5×10^6 cells of HT1080 were subcutaneously inoculated into the right trunk of male 6-week-old BALB/c nu/nu mice (Charles River Laboratories). The tumors were grown for approximately 1 week, to a maximum size of ˜200 mm^3. Respective doses were prepared by mixing a fixed quantity of 5 pmoles ^177Lu labelled peptides (at approx. 50 kBq) with different quantities of non-labelled peptide (derived from 1 mM stock solution in 0.25 M sodium acetate pH 7+0.05% Tween20) in 100 μL injection buffer (0.25 M sodium acetate pH 7+0.05% Tween20). 3 animals were used per dose and timepoint. Radiolabelled peptide solutions were injected via the tail vein, followed by sacrifice at various time points. Organs of interest (blood, heart, lung, spleen, liver, kidney, muscle, small intestine, brain, HT1080 tumor) were dissected, blotted dry, and weighed. The radioactivity was measured using a gamma counter and calculated as % ID/g.

MT1-MMP hemopexin domain = MT1-MMP hemopexin domain (Homo sapiens, UniProt P50281); test: Fluorescence polarization direct binding / competition assay to MT1-MMP hemopexin domain
Method: Direct Binding Fluorescence Polarization or Anisotropy Assays are performed by titrating a constant concentration of fluorescent tracer (here, the fluoresceinated bicyclic peptide to be studied) with its binding partner (here, the MT1-MMP hemopexin domain). As the concentration of binding partner increases during the titration, the polarization signal changes in proportion to the fraction of bound and unbound material. This allows determination of […] (Kd) quantitatively. Assay data can be fit using standard ligand binding equations.
Typically, concentrations of the tracer are ideally well below the Kd of the tracer: titrant pair, and concentrations chosen are usually at ˜1 nM or less. The titrant (binding partner) concentration is varied from 0.1 nM up to typically 5 μM. The range is chosen such that the maximum change in fluorescent polarization can be observed. Buffers employed are phosphate buffered saline in the presence of 0.01% Tween. Experiments were run in black 384 well low-bind/low volume plates (Corning 3820), and the fluorescent polarization signal was measured using a BMG Pherastar FS plate reader. Fluorescent tracers referred to in the text are bicyclic peptides that have been fluoresceinated using 5,6-carboxyfluorescein. Fluoresceination may be performed on the N-terminal amino group of the peptide, which is separated from the bicycle core sequence by a sarcosine spacer (usually Sar10 (SEQ ID NO: 73)). This can be done during Fmoc solid phase synthesis or post-synthetically (after cyclization with the molecular scaffold reagent and purification) if the N-terminal amino group is unique to the peptide. Fluoresceination can also be performed on the C-terminus, usually on a Lysine introduced as the first C-terminal residue, which is then separated from the bicycle core sequence by a sarcosine spacer (usually Sar6 (SEQ ID NO: 69)). Thus, N-terminal tracers can have a molecular format described as Fluo-Ala-Sar10-A (SEQ ID NO: 72) (BicycleCoreSequence), and (BicycleCoreSequence)-A-Sar6-K (Fluo) (SEQ ID NO: 67) for a C-terminally fluoresceinated construct.
Fluorescent tracers used in the Examples are A-(17-69)-A-Sar6-K (Fluo) (SEQ ID NO: 67), A-(17-69-07)-A-Sar6-K (Fluo) (SEQ ID NO: 67), and A-(17-69-12)-A-Sar6-K (Fluo) (SEQ ID NO: 67). Due to the acidic nature of the 17-69 fluorescent peptides, they were typically prepared as concentrated DMSO stocks, from which dilution were prepared in 100 mM Tris pH 8 buffer.
Due to their high affinities to the MT1-MMP Hemopexin domain (PEX), the fluoresceinated derivatives of 17-69-07 and 17-69-12 (denoted as 17-69-07-N040 and 17-69-12-N005, respectively) can be used for competition experiments (using FP for detection). […] Dissociation of the complex can be measured quantitatively, and the Kd of the competitor (titrant) to the target protein determined. The advantage of the competition method is that the affinities of non-fluoresceinated bicyclic peptides can be determined accurately and rapidly.
Subsequently, the non-fluorescent competitor bicyclic peptide (usually just the bicycle core sequence) is titrated, such that it displaces the fluorescent tracer from the target protein. The displacement of the tracer is measured and associated with a drop in fluorescence polarization. The drop in fluorescence polarization is proportional to the fraction of target protein bound with the non-fluorescent titrant, and thus is a measure of the affinity of titrant to target protein. […]

[1] = Organ distribution of 177Lu-labelled peptides in HT1080 xenograft mice; assay type: in vivo, BALB/c nu/nu mice; details: male, BALB/c nu/nu, mouse, HT1080 tumor, iv, total radioactivity; 1 h p.i. of 150 pmoles
Method: as §1, §2, §3, §4, §5

With `CCCCCCCCCCCCCCCC(=O)NCCC(=O)N(C)CC(=O)N(C)CC(=O)N(C)CC(=O)N(C)CC(=O)N(C)CC(=O)N[C@@H](CCCCNC(=O)CN1CCN(CC(=O)O)CCN(CC(=O)O)CCN(CC(=O)O)CC1)C(=O)N(C)CC(=O)N(C)CC(=O)N(C)CC(=O)N(C)CC(=O)N(C)CC(=O)N(C)CC(=O)N(C)CC(=O)N(C)CC(=O)N(C)CC(=O)N(C)CC(=O)N[C@@H](C)C(=O)N[C@H]1CSCc2cc3cc(c2)CSC[C@H](NC(=O)[C@H](C)NC(=O)[C@H](Cc2cccc4ccccc24)NC(=O)[C@H](CCC(=O)O)NC(=O)[C@H](CC(N)=O)NC(=O)[C@@H](C)NC1=O)C(=O)N[C@@H](C)C(=O)N[C@@H](CC(=O)O)C(=O)N[C@@H](Cc1ccccc1)C(=O)N[C@@H](Cc1ccc(O)cc1)C(=O)N[C@@H](CC(=O)O)C(=O)N[C@@H](C(C)(C)C)C(=O)N[C@H](C(N)=O)CSC3` [I-29] ({Palmitoyl-βAla}-[Sar][Sar][Sar][Sar][Sar]K(DOTA)[Sar][Sar][Sar][Sar][Sar][Sar][Sar][Sar][Sar][Sar]AC[dA]NE[1Nal]ACADFYD[Tle]C-NH2; linker 18-24-31 via TBMB) the tumour uptake (HT1080 tumor; 750 pmole per mouse, 6 hour timepoint) was 4.8%.
`C[C@H](NC(=O)CN(C)C(=O)CN(C)C(=O)CN(C)C(=O)CN(C)C(=O)CN(C)C(=O)CN(C)C(=O)CN(C)C(=O)CN(C)C(=O)CN(C)C(=O)CN(C)C(=O)CCNC(=O)CN1CCN(CC(=O)O)CCN(CC(=O)O)CCN(CC(=O)O)CC1)C(=O)N[C@H]1CSCc2cc3cc(c2)CSC[C@H](NC(=O)[C@H](C)NC(=O)[C@H](Cc2cccc4ccccc24)NC(=O)[C@H](CCC(=O)O)NC(=O)[C@H](CC(N)=O)NC(=O)[C@@H](C)NC1=O)C(=O)N[C@@H](C)C(=O)N[C@@H](CC(=O)O)C(=O)N[C@@H](Cc1ccccc1)C(=O)N[C@@H](Cc1ccc(O)cc1)C(=O)N[C@@H](CC(=O)O)C(=O)N[C@@H](C(C)(C)C)C(=O)N[C@H](C(N)=O)CSC3` [I-27] ({DOTA-βAla}-[Sar][Sar][Sar][Sar][Sar][Sar][Sar][Sar][Sar][Sar]AC[dA]NE[1Nal]ACADFYD[Tle]C-NH2; linker 12-18-25 via TBMB) showed a Kd (MT1-MMP hemopexin domain) greater than 5 µM and a tissue uptake at 1 h [1] of 0.28 ± 0.05 %ID/g.
For `C[C@H](NC(=O)CN1CCN(CC(=O)O)CCN(CC(=O)O)CCN(CC(=O)O)CC1)C(=O)N[C@H]1CSCc2cc3cc(c2)CSC[C@H](NC(=O)[C@H](C)NC(=O)[C@H](Cc2cccc4ccccc24)NC(=O)[C@H](CCC(=O)O)NC(=O)[C@H](CC(N)=O)NC(=O)[C@@H](C)NC1=O)C(=O)N[C@@H](C)C(=O)N[C@@H](CC(=O)O)C(=O)N[C@@H](Cc1ccccc1)C(=O)N[C@@H](Cc1ccc(O)cc1)C(=O)N[C@@H](CC(=O)O)C(=O)N[C@@H](C(C)(C)C)C(=O)N[C@H](C(N)=O)CSC3` [I-26] ({DOTA}-AC[dA]NE[1Nal]ACADFYD[Tle]C-NH2; linker 2-8-15 via TBMB), the Kd (MT1-MMP hemopexin domain) was greater than 5 µM and the “tumor uptake compared with the binding variant I-23” value (HT1080 tumor; organ distribution, FIG. 8) was “essentially absent”.
In the case of `CC(C)[C@H](NC(=O)[C@@H](CC(=O)O)NC(=O)[C@H](Cc1c[nH]cn1)NC(=O)CN(C)C(=O)CN(C)C(=O)CN(C)C(=O)CN(C)C(=O)CN(C)C(=O)CN(C)C(=O)CN(C)C(=O)CN(C)C(=O)CN(C)C(=O)CN(C)C(=O)CCNC(=O)CN1CCN(CC(=O)O)CCN(CC(=O)O)CCN(CC(=O)O)CC1)C(=O)N1CCC[C@H]1C(=O)N[C@H]1CSCc2cc3cc(c2)CSC[C@H](NC(=O)[C@H](Cc2cccc4ccccc24)NC(=O)[C@H](Cc2ccccc2)NC(=O)C(C)(C)NC(=O)CNC(=O)[C@H](Cc2cccc4ccccc24)NC(=O)[C@@H]2CCCN2C1=O)C(=O)N1CCC[C@H]1C(=O)N[C@@H](C(C)(C)C)C(=O)N[C@@H](CC(N)=O)C(=O)N[C@@H](CCCNC(=N)N)C(=O)NC(C)(C)C(=O)N[C@H](CC(=O)O)C(=O)N[C@H](C(N)=O)CSC3` [I-17] ({DOTA-βAla}-[Sar][Sar][Sar][Sar][Sar][Sar][Sar][Sar][Sar][Sar]H[dD]VPCP[1Nal]G[Aib]F[1Nal]CP[Tle]NR[Aib][dD]C-NH2; linker 15-22-29 via TBMB), the “blocking of tumor uptake at a dose of 500 pmoles” value (HT1080 tumor; 1 h post injection) is reported as “slightly blocked” and the “blocking of tumor uptake using 5 nmoles” value (HT1080 tumor; 1 h post injection) is reported as “nearly completely blocked”.
